Experimental data from patent US20020150993A1 (Genentech, published 2002).

B2: full-length DNA19355 polypeptide on cells (ligand)
chain: MCLSHLENMPLSHSRTQGAQRSSWKLWLFCSIVMLLFLCSFSWLIFIFLQLETAKEPCMAKFGPLPSKWQMASSEPPCVNKVSDWKLEILQNGLYLIYGQVAPNANYNDVAPFEVRLYKNKDMIQTLTNKSKIQNVGGTYELHVGDTIDLIFNSEHQVLKNNTYWGIILLANPQFIS
notes: also called DNA19355 ligand; polypeptide encoded by DNA19355-1150
B3: CD95 immunoadhesin (Fc fusion, UniProt P25445 26-173, looked up)
chain: QVTDINSKGLELRKTVTTVETQNLEGLHHDGQFCHKPCPPGERKARDCTVNGDEPDCVPCQEGKEYTDKAHFSSKCRRCRLCDEGHGLEVEINCTRTQNTKCRCKPNFFCNSTVCEHCDPCTKCEHGIIKECTLTSNTKCKEEGSRSN
notes: extracellular domain; also called Fas-IgG; CD95-IgG; not shown: hinge and Fc portion of human IgG, as described in Ashkenazi et al. 1991

Assays:
DR5 immunoadhesin = biological target: T1, DR5 immunoadhesin (human, UniProt O14763 56-210, limits assumed); assay: co-precipitation with protein A-sepharose, SDS-PAGE, autoradiography
T1 construct: extracellular domain; also called DR5-IgG; Apo-2; not shown: hinge and Fc portion of human IgG, as described in Ashkenazi et al. 1991
Description: (§1) The soluble DNA19355 ECD molecule was then labeled with […], for testing its ability to interact with the PRO364 immunoadhesin. For comparison, immunoadhesin constructs were also made of the following TNF receptor family members: CD95, DR4, DR5, TNFR1, TNFR2, and Apo-3. CD95, DR4, DR5, TNFR1, TNFR2, and Apo-3 immunoadhesins were prepared by fusing each receptor's ECD to the hinge and Fc portion of human IgG, as described previously for TNFR1 [Ashkenazi et al., Proc. Natl. Acad. Sci., 88:10535-10539 (1991)]. The respective TNF receptor family members are described (and relevant references cited) in the Background of the Invention section.
(§2) For the co-precipitation assay, each immunoadhesin (5 microgram) was incubated with ¹²⁵I-labeled soluble DNA19355 polypeptide (1 microgram) for 1 hour at 24° C., followed by protein A-sepharose for 30 minutes on ice. The reaction mixtures were spun down and washed several times in PBS, boiled in SDS-PAGE buffer containing 20 mM dithiothreitol and then resolved by SDS-PAGE and autoradiography.

TNFR1 immunoadhesin [1] = biological target: T2, TNFR1 immunoadhesin (human, UniProt P19438 30-211, limits assumed); assay: as above
T2 construct: extracellular domain; also called TNFR1-IgG; not shown: hinge and Fc portion of human IgG, as described in Ashkenazi et al. 1991
T2 sequence (looked up): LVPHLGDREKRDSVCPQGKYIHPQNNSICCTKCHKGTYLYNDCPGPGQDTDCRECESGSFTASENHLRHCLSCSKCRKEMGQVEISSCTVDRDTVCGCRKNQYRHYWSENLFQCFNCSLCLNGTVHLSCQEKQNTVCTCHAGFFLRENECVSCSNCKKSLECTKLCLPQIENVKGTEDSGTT
Description: as §1, §2

DR4 immunoadhesin = biological target: T3, DR4 immunoadhesin (human, UniProt O00220 24-239, limits assumed); assay: as above
T3 construct: extracellular domain; also called DR4-IgG; not shown: hinge and Fc portion of human IgG, as described in Ashkenazi et al. 1991
T3 sequence (looked up): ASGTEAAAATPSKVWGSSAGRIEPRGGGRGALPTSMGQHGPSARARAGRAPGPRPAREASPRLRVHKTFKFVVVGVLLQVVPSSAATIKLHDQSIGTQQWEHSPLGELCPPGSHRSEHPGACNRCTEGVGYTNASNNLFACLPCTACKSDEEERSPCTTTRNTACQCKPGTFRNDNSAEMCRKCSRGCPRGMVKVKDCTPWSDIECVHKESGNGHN
Description: as §1, §2

TNFR2 immunoadhesin = biological target: T4, TNFR2 immunoadhesin (human, UniProt P20333 23-257, limits assumed); assay: as above
T4 construct: extracellular domain; also called TNFR2-IgG; not shown: hinge and Fc portion of human IgG, as described in Ashkenazi et al. 1991
T4 sequence (looked up): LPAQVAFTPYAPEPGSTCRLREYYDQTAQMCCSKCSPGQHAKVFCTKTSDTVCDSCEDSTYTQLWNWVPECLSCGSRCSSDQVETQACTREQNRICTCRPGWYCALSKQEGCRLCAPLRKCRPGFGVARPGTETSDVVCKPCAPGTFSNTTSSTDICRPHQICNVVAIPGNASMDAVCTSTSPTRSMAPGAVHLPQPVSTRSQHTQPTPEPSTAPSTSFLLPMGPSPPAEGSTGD
Description: as §1, §2

CD95 immunoadhesin = biological target: B3; assay: as above
Description: as §1, §2

Apo-3 immunoadhesin = biological target: T5, Apo-3 immunoadhesin (human, UniProt Q93038 25-199); assay: as above
T5 construct: extracellular domain; also called Apo-3-IgG; DR3; not shown: hinge and Fc portion of human IgG, as described in Ashkenazi et al. 1991
T5 sequence (looked up): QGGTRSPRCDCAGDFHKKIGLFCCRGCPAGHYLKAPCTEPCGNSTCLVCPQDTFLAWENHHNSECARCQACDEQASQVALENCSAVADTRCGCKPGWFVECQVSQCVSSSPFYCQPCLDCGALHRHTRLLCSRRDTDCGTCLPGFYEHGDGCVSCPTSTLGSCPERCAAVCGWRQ
Description: as §1, §2

TNFR1 immunoadhesin [2] = biological target: T2, TNFR1 immunoadhesin; assay: FACS on HUVEC (endogenous DNA19355 transcripts)
Description: (§3) The DNA19355 polypeptide was identified in a human umbilical vein endothelial cell (HUVEC) library, and the DNA19355 polypeptide transcripts are readily detectable in HUVEC by RT-PCR (data not shown). […] HUVEC were purchased from Cell Systems (Kirkland, Wash.) and grown in a 50:50 mix of Ham's F12 and Low Glucose DMEM media containing […] fetal bovine serum, 2 mM L-glutamine, 10 mM Hepes, and 10 ng/ml basic FGF. Cells were FACS sorted with PBS, PRO364-IgG, TNFR1-IgG or Fas-IgG as a primary antibody and goat anti-human F(ab′)2 conjugated to phycoerythrin (CalTag, Burlingame, Calif.).

[3] = biological target: B2; assay: FACS on HUVEC (endogenous DNA19355 transcripts)
Description: as §3

[4] = biological target: B2; assay: FACS on 293 cells transiently transfected with full-length DNA19355
Description: In another assay, human 293 cells were transiently transfected with full-length DNA19355 and the ability of receptor immunoadhesin constructs for PRO364, TNFR1, HVEM, and DcR1 to t bind to those transfected cells was determined by FACS analysis. The 293 cells were maintained in high glucose DMEM media supplemented with 10% fetal bovine serum (FBS), 2 mM glutamine, 100 microgram/ml penicillin, and 100 microgram/ml streptomycin. The transfected cells (1×10⁵) were incubated for 60 minutes at 4° C. in 200 microliters 2% FBS/PBS with 1 microgram of the respective receptor or ligand immunoadhesin. The cells were then washed with 2% FBS/PBS, stained with R-phycoerythrin-conjugated goat anti-human antibody (Jackson Immunoresearch, West Grove, Pa.). Next, the cells were analyzed by FACS. To test the binding of the respective immunoadhesins to the transiently transfected cells, an expression vector (pRK5-CD4; Smith et al., Science, 328:1704-1707 (1987)) for CD4 was co-transfected with DNA19355 expression vector (see above). FITC-conjugated anti-CD4 (Pharmingen, San Diego, Calif.) was then used to identify and gate the transfected cell population in the FACS analysis.

B1: soluble DNA19355 polypeptide (ECD, His10-tagged, 125I-labeled) (ligand)
chain: MGHHHHHHHHHHSSGHIDDDDKHMETAKEPCMAKFGPLPSKWQMASSEPPCVNKVSDWKLEILQNGLYLIYGQVAPNANYNDVAPFEVRLYKNKDMIQTLTNKSKIQNVGGTYELHVGDTIDLIFNSEHQVLKNNTYWGIILLANPQFIS
modifications: 125I-labeled (radioiodinated)
notes: Expressed in E. coli and purified on Nickel-sepharose; Removal of the tag is not reported; also called soluble DNA19355 ECD molecule; radioiodinated DNA19355 polypeptide
Q: Does B1 bind (DR5 immunoadhesin)?
A: no binding

Q: Does B1 bind (TNFR1 immunoadhesin [1])?
A: no binding

Q: Does B1 bind (DR4 immunoadhesin)?
A: no binding

Q: Does B1 bind (TNFR2 immunoadhesin)?
A: no binding

Q: Does B1 bind (CD95 immunoadhesin)?
A: no binding

Q: Does B1 bind (Apo-3 immunoadhesin)?
A: no binding

Q: Does B2 bind (TNFR1 immunoadhesin [2])?
A: no binding

Q: Does B3 bind [3]?
A: no binding

B4: PRO364-IgG (PRO364 extracellular domain immunoadhesin) (Fc fusion)
chain: QRPTGGPGCGPGRLLLGTGTDARCCRVHTTRCCRDYPGEECCSEWDCMCVQPEFHCGDPCCTTCRHHPCPPGQGVQSQGKFSFGFQCIDCASGTFSGGHEGHCKPWTDCTQFGFLTVFPGNKTHNAVCVPGSPPAE
notes: Expressed in insect cells with Baculovirus; also called PRO364 immunoadhesin; PRO364 ECD C-terminus IgG-Fc tagged form; not shown: IgG Fc fused at the C-terminus
Q: Does B4 bind [4]?
A: binds
